According to patent publication US9266930:
Read-outs that look alike come from different tables or passages of the source.

Experiments:
[1] = target: HLA-B*3501 (human); experiment: competition with 125I probe peptide for purified HLA, gel filtration
[2] = target: HLA-A*0301 (human)
[3] = target: HLA-A*6801 (human); experiment: competition with 125I-labeled probe peptide for purified HLA, gel filtration
[4] = target: HLA-A*3301 (human); experiment: as above
[5] = target: HLA-A*3101 (human); experiment: as above
[6] = target: HLA-A*0301 (human); experiment: as above
[7] = target: HLA-A*1101 (human); experiment: as above
[8] = target: HLA-A*6801 (human)
[9] = target: HLA-A*3101 (human)
[10] = target: HLA-A*0301 (human); remark: listed apart in the source
[11] = target: HLA-A*1101 (human)
[12] = target: HLA-A*0301 (human); remark: listed apart in the source
[13] = target: HLA-A*0301 (human); remark: listed apart in the source
[14] = target: HLA-A*1101 (Human)
[15] = target: T1, HLA-DR1 (DRB1*0101) (human)
T1 chain 1: not shown
T1 chain 2: not shown

[16] = target: T2, HLA-DR3 (DRB1*0301) (human)
T2 chain 1: not shown
T2 chain 2: not shown

[17] = target: T3, HLA-DR6w19 (DRB1*1302) (human)
T3 chain 1: not shown
T3 chain 2: not shown

[18] = target: HLA-B*0702 (Human)

Binder: LPYGRTNL (modifications not checked) [19.0051]
- IC50 [1]: > 30 µM

Binder: IAGGLALLA (modifications not checked) [… (P. falciparum SSP2 position 504, 9-mer, A3 motif peptide)]
- binding affinity ratio (IC50 of standard peptide / IC50 of test peptide) [2]: 0.0002

Binder: LALFFIIFNK (modifications not checked) [… (P. falciparum EXP, position 9, 10 amino acids)]
- binding affinity ratio (relative to standard peptide) [3]: 0.0039
- binding affinity ratio (relative to standard peptide) [4]: 0.0076
- binding affinity ratio (relative to standard peptide) [5]: 0.0072
- binding affinity ratio (relative to standard peptide) [6]: 0.014
- binding affinity ratio (relative to standard peptide) [7]: 0.053

Binder: NANANNAVK (modifications not checked) [… (P. falciparum CSP, position 335)]
- binding affinity ratio (IC50 of standard peptide / IC50 of test peptide) [8]: 0.021
- binding affinity ratio (IC50 of standard peptide / IC50 of test peptide) [9]: 0.0006

Binder: NLPNDKSDR (modifications not checked) [… (P. falciparum SSP2, position 406, 9 amino acids)]
- binding affinity ratio (relative to standard peptide) [10]: 0.0005
- binding affinity ratio (relative to standard peptide) [11]: 0.0002

Binder: LALFFIIFNK (modifications not checked) [… (P. falciparum EXP, position 9)]
- binding affinity ratio (IC50 of standard peptide / IC50 of test peptide) [12]: 0.014

Binder: GSGEPLIDVH (modifications not checked) [… (P. falciparum EXP, position 42)]
- binding affinity ratio (IC50 of standard peptide / IC50 of test peptide) [13]: 0.0005
- binding affinity ratio (IC50 of standard peptide / IC50 of test peptide) [14]: 0.0002

Binder: KCNLYADSAWENVKN (modifications not checked) [35.0172 … (Pf SSP2 211)]
- IC50 [15]: 23.4 µM
- IC50 [16]: 857 nM
- IC50 [17]: 11.1 µM

Binder: VPGAATPYA (modifications not checked) [… (P. falciparum SSP2, position 522)]
- binding affinity ratio (IC50 of standard peptide / IC50 of test peptide) [18]: 0.0001
